Like-named read-outs stand apart in the source and are kept apart here.
Tests used:
[1] = test system: TALEN 101238 (Xanthomonas (engineered)?); test: cell_activity; settings: paired with 101236, K562
[2] = test system: TALEN 101238a (Xanthomonas (engineered)?); test: cell_activity; settings: paired with 101236, K562; SELEX preference improved
[3] = test system: TALEN 101238b (Xanthomonas (engineered)?); test: cell_activity; settings: paired with 101236, K562; SELEX preference improved
[4] = test system: TALEN 101238c (Xanthomonas (engineered)?); test: cell_activity; settings: paired with 101236, K562; SELEX preference improved
[5] = test system: TALEN 101238d (Xanthomonas (engineered)?); test: cell_activity; settings: paired with 101236, K562
[6] = test system: TALEN 101238e (Xanthomonas (engineered)?); test: cell_activity; settings: paired with 101236, K562; SELEX not interpretable
[7] = test system: TALE 101042-BfiI (Xanthomonas/Bacillus (engineered)?); test: cell_activity; settings: paired with 101047-BfiI, K562
[8] = test system: TALE 101043-BfiI (Xanthomonas/Bacillus (engineered)?); test: cell_activity; settings: paired with 101047-BfiI, K562
[9] = test system: TALE TL_CTTC RD-RG-KG-AD (Xanthomonas (engineered)?); settings: ELISA; site composed
[10] = test system: TALE TL_CTTC RD-RG-MG-ND (Xanthomonas (engineered)?); settings: ELISA; site composed
[11] = test system: TALE TL_CTTC RD-RG-RG-KD (Xanthomonas (engineered)?); settings: ELISA; site composed
[12] = test system: TALE 101047-BfiI (Xanthomonas/Bacillus (engineered)?); test: cell_activity; settings: paired with 101043-BfiI, K562
[13] = test system: TALEN 101047 (R) (Xanthomonas (engineered)?); test: cell_activity; settings: paired with 101041, K562
[14] = test system: TALEN 102109 (R*) (Xanthomonas (engineered)?); test: cell_activity; settings: paired with 102204, K562
[15] = test system: TALEN 3-1 (Xanthomonas (engineered)?); test: cell_activity; settings: paired with 101041
[16] = test system: TALEN 4-1 (Xanthomonas (engineered)?); test: cell_activity; settings: paired with 101041
[17] = test system: TALEN Condition 3 lane 8 (Xanthomonas (engineered)?); test: cell_activity; settings: paired with 101041
[18] = test system: TALEN Condition 4 lane 64 (Xanthomonas (engineered)?); test: cell_activity; settings: paired with 101041
[19] = test system: TALEN 101664 (R551-C17-KKR) (Xanthomonas (engineered)?); test: cell_activity; settings: paired with 101662, 12 bp gap, K562
[20] = test system: TALE TL_TCAT AA-KD-KI-MG (Xanthomonas (engineered)?); settings: ELISA
[21] = test system: TALE TL_TCAT QG-AD-HI-KG (Xanthomonas (engineered)?); settings: ELISA
[22] = test system: TALE TL_TCAT QG-KD-KI-AA (Xanthomonas (engineered)?); settings: ELISA
[23] = test system: TALE TL_TCAT canonical (Xanthomonas (engineered)?); settings: ELISA, AFU 204
[24] = test system: TALEN 1-1 (Xanthomonas (engineered)?); test: cell_activity; settings: paired with 101047
[25] = test system: TALEN 101041 (L) (Xanthomonas (engineered)?); test: cell_activity; settings: paired with 101047, K562
[26] = test system: TALEN 101662 (L538-C17-ELD) (Xanthomonas (engineered)?); test: cell_activity; settings: paired with 101664, 12 bp gap, K562
[27] = test system: TALEN 102204 (L*) (Xanthomonas (engineered)?); test: cell_activity; settings: paired with 102109, K562
[28] = test system: TALEN 102297 (L538NC-C17-ELD) (Xanthomonas (engineered)?); test: cell_activity; settings: paired with 101664, 12 bp gap, K562
[29] = test system: TALEN 2-1 (Xanthomonas (engineered)?); test: cell_activity; settings: paired with 101047
[30] = test system: TALEN Condition 1 lane 40 (Xanthomonas (engineered)?); test: cell_activity; settings: paired with 101047
[31] = test system: TALEN Condition 2 lane 45 (Xanthomonas (engineered)?); test: cell_activity; settings: paired with 101047
[32] = test system: TALE 101048-BfiI (Xanthomonas/Bacillus (engineered)?); test: cell_activity; settings: paired with 101043-BfiI, K562
[33] = test system: CXA TALE KAK S11K (repeat 5) (Xanthomonas (engineered)?)
[34] = test system: CXA TALE KKD S11K (repeat 5) (Xanthomonas (engineered)?)
[35] = test system: CXA TALE KRD S11K (repeat 5) (Xanthomonas (engineered)?)
[36] = test system: CXA TALE KRI S11K (repeat 5) (Xanthomonas (engineered)?)
[37] = test system: CXA TALE NRD S11N (repeat 5) (Xanthomonas (engineered)?)
[38] = test system: CXA TALE NRI S11N (repeat 5) (Xanthomonas (engineered)?)
[39] = test system: CXA TALE SAK (Xanthomonas (engineered)?)
[40] = test system: CXA TALE SHD (Xanthomonas (engineered)?)
[41] = test system: CXA TALE SKD (Xanthomonas (engineered)?)
[42] = test system: CXA TALE SNG (Xanthomonas (engineered)?)
[43] = test system: CXA TALE SNI (pos 11-13) (Xanthomonas (engineered)?)
[44] = test system: CXA TALE SNN (Xanthomonas (engineered)?)
[45] = test system: CXA TALE SRD (Xanthomonas (engineered)?)
[46] = test system: CXA TALE SRI (Xanthomonas (engineered)?)
[47] = test system: TALE TR_ATAC CI-VA-HI-ND (Xanthomonas (engineered)?); settings: ELISA; site composed
[48] = test system: TALE TR_ATAC HI-VA-CI-ND (Xanthomonas (engineered)?); settings: ELISA; site composed
[49] = test system: TALE TR_ATAC KI-MG-HI-RD (Xanthomonas (engineered)?); settings: ELISA; site composed
[50] = test system: TALE TR_ATTG CI-KG-QG-HN (Xanthomonas (engineered)?); settings: ELISA; site composed
[51] = test system: TALE TR_ATTG CI-MG-KG-HN (Xanthomonas (engineered)?); settings: ELISA; site composed
[52] = test system: TALE TR_ATTG HI-RG-MG-HN (Xanthomonas (engineered)?); settings: ELISA; site composed
[53] = test system: TALE TR_CAGA AD-HI-GN-HI (Xanthomonas (engineered)?); settings: ELISA; site composed
[54] = test system: TALE TR_CAGA KD-HI-FN-HI (Xanthomonas (engineered)?); settings: ELISA; site composed
[55] = test system: TALE TR_CAGA ND-HI-HN-KI (Xanthomonas (engineered)?); settings: ELISA; site composed
[56] = test system: TALE TR_CAGC ND-KI-FN-AD (Xanthomonas (engineered)?); settings: ELISA
[57] = test system: TALE TR_CAGC RD-HI-GN-ND (Xanthomonas (engineered)?); settings: ELISA
[58] = test system: TALE TR_CAGC RD-HI-HN-ND (Xanthomonas (engineered)?); settings: ELISA
[59] = test system: TALE TR_CAGC canonical (Xanthomonas (engineered)?); settings: ELISA, AFU 649
[60] = test system: TALE TR_CCTG AD-RD-HG-HN (Xanthomonas (engineered)?); settings: ELISA; site composed
[61] = test system: TALE TR_CCTG ND-KD-HG-HN (Xanthomonas (engineered)?); settings: ELISA; site composed
[62] = test system: TALE TR_CCTG RD-ND-AA-HN (Xanthomonas (engineered)?); settings: ELISA; site composed
[63] = test system: TALE TR_CCTG canonical (Xanthomonas (engineered)?); settings: ELISA, AFU 1020; site composed
[64] = test system: TALE TR_TACA KG-KI-KD-CI (Xanthomonas (engineered)?); settings: ELISA; site composed
[65] = test system: TALE TR_TACA RG-HI-RD-KI (Xanthomonas (engineered)?); settings: ELISA; full site composed from anchor + subsite
[66] = test system: TALE TR_TACA VA-CI-ND-HI (Xanthomonas (engineered)?); settings: ELISA; full site composed from anchor + subsite
[67] = test system: TALE TR_TACA canonical (Xanthomonas (engineered)?); settings: ELISA, AFU 779; site composed

PITX3 target of 101238
activity [1]: 34 % indels
activity [2]: 54 % indels
activity [3]: 50 % indels
activity [4]: 44 % indels
activity [5]: 43 % indels
activity [6]: 22 % indels

TACACCTGCAGCTCT (double strand) [101042 half-site]
activity [7]: 0.11 % indels

TACACCTGCAGCTCTCAT (double strand) [101043 half-site]
activity [8]: 0.75 % indels

TCTTCATCCT (double strand) [TL CTTC target]
binding signal (fold vs canonical) [9]: 8.22
binding signal (fold vs canonical) [10]: 0.16
binding signal (fold vs canonical) [11]: 13.8

TCTTCCAGAATTGATACT (double strand) [CCR5 R557 half-site]
activity [12]: 0.75 % indels
activity [13]: 50.6 % indels
activity [14]: 65.2 % indels
activity [15]: 56.3 % NHEJ
activity [16]: 59.5 % NHEJ
activity [17]: 0 % NHEJ
activity [18]: 0 % NHEJ

TGATACTGACTGT (double strand) [CCR5 R551 half-site]
activity [19]: 59 % NHEJ

TTCATATCCT (double strand) [TL TCAT target]
binding signal (fold vs canonical) [20]: 0.05
binding signal (fold vs canonical) [21]: 2.26
binding signal (fold vs canonical) [22]: 2.34
binding signal (fold vs canonical) [23]: 1

TTCATTACACCTGCAGCT (double strand) [CCR5 L538 half-site]
activity [24]: 36.6 % NHEJ
activity [25]: 50.6 % indels
activity [26]: 59 % NHEJ
activity [27]: 65.2 % indels
activity [28]: 56.2 % NHEJ
activity [29]: 64.1 % NHEJ
activity [30]: 0 % NHEJ
activity [31]: 0 % NHEJ

TTCTTCCAGAATTGAT (double strand) [101048 half-site]
activity [32]: 0.27 % indels

TTGACAATCCT (double strand) [CAA target]
binding signal (normalized ELISA) [33]: 0.05
binding signal (normalized ELISA) [34]: 0.25
binding signal (normalized ELISA) [35]: 0.48
binding signal (normalized ELISA) [36]: 0.74
binding signal (normalized ELISA) [37]: 0.07
binding signal (normalized ELISA) [38]: 0
binding signal (normalized ELISA) [39]: 0.01
binding signal (normalized ELISA) [40]: 0.38
binding signal (normalized ELISA) [41]: 0.14
binding signal (normalized ELISA) [42]: 0.63
binding signal (normalized ELISA) ([43]; flanking RVDs inferred from anchors): 0.96
binding signal (normalized ELISA) [44]: 1.12
binding signal (normalized ELISA) [45]: 0.26
binding signal (normalized ELISA) [46]: 0.51

TTGACATACT (double strand) [TR ATAC target]
binding signal (fold vs canonical) [47]: 1.4
binding signal (fold vs canonical) [48]: 1.36
binding signal (fold vs canonical) [49]: 0.47

TTGACATTGT (double strand) [TR ATTG target]
binding signal (fold vs canonical) [50]: 1.12
binding signal (fold vs canonical) [51]: 1.22
binding signal (fold vs canonical) [52]: 0

TTGACCAGAT (double strand) [TR CAGA target]
binding signal (fold vs canonical) [53]: 0.04
binding signal (fold vs canonical) [54]: 1.3
binding signal (fold vs canonical) [55]: 1.28

TTGACCAGCT (double strand) [TR CAGC target]
binding signal (fold vs canonical) [56]: 0
binding signal (fold vs canonical) [57]: 0.4
binding signal (fold vs canonical) [58]: 1.52
binding signal (fold vs canonical) [59]: 1

TTGACCATCCT (double strand) [CCA target]
binding signal (normalized ELISA) [34]: 0.64
binding signal (normalized ELISA) [35]: 0.85
binding signal (normalized ELISA) [36]: 0.28
binding signal (normalized ELISA) [37]: 0.53
binding signal (normalized ELISA) [40]: 1.29
binding signal (normalized ELISA) [41]: 0.5
binding signal (normalized ELISA) [42]: 0.15
binding signal (normalized ELISA) [43]: 0.06
binding signal (normalized ELISA) [44]: 0.01
binding signal (normalized ELISA) [45]: 0.91
binding signal (normalized ELISA) [46]: 0.04

TTGACCCTGT (double strand) [TR CCTG target]
binding signal (fold vs canonical) [60]: 1.3
binding signal (fold vs canonical) [61]: 1.07
binding signal (fold vs canonical) [62]: 0.02
binding signal (fold vs canonical) [63]: 1

TTGACGATCCT (double strand) [CGA target]
binding signal (normalized ELISA) [33]: 0.28
binding signal (normalized ELISA) [39]: 0.21
binding signal (normalized ELISA) [40]: 0.01
binding signal (normalized ELISA) [42]: 0.11
binding signal (normalized ELISA) [43]: 0.01
binding signal (normalized ELISA) [44]: 0.76

TTGACTACAT (double strand) [TR TACA target]
binding signal (fold vs canonical) [64]: 0.48
binding signal (fold vs canonical) [65]: 1.62
binding signal (fold vs canonical) [66]: 1.57
binding signal (fold vs canonical) [67]: 1

TTGACTATCCT (double strand) [CTA target]
binding signal (normalized ELISA) [40]: 0.12
binding signal (normalized ELISA) [42]: 0.99
binding signal (normalized ELISA) [43]: 0.02
binding signal (normalized ELISA) [44]: 0.03

— patent US20130196373
